Source: the supplement of paper PMC11246515
± gives the standard deviation of the averaged measurements.

Experiment: total protein half-life in vivo (active degradation + dilution); higher = more stable protein
[1] = E. coli NCM3722 delta-clpP delta-lon delta-hslV, growth: N-lim chemostat, doubling time 6 h
[2] = E. coli NCM3722 delta-clpP, growth: N-lim chemostat, doubling time 6 h
[3] = E. coli NCM3722 delta-hslV, growth: N-lim chemostat, doubling time 6 h
[4] = E. coli NCM3722 delta-lon, growth: N-lim chemostat, doubling time 6 h
[5] = E. coli NCM3722 delta-smpB, growth: N-lim chemostat, doubling time 6 h
[6] = wild type E. coli NCM3722, growth: C-lim chemostat, doubling time 3 h
[7] = wild type E. coli NCM3722, growth: C-lim chemostat, doubling time 6 h
[8] = wild type E. coli NCM3722, growth: C-lim chemostat, doubling time 12 h
[9] = wild type E. coli NCM3722, growth: N-lim chemostat, doubling time 6 h
[10] = wild type E. coli NCM3722, growth: N-lim chemostat, doubling time 12 h
[11] = wild type E. coli NCM3722, growth: P-lim chemostat, doubling time 6 h
[12] = wild type E. coli NCM3722, growth: P-lim chemostat, doubling time 12 h

Substance | total protein half-life in vivo [1] | total protein half-life in vivo [2] | total protein half-life in vivo [3] | total protein half-life in vivo [4] | total protein half-life in vivo [5] | total protein half-life in vivo [6] | total protein half-life in vivo [7] | total protein half-life in vivo [8] | total protein half-life in vivo [9] | total protein half-life in vivo [10] | total protein half-life in vivo [11] | total protein half-life in vivo [12]
MLRVYHSNRLDVLEALMEFIVERERLDDPFEPEMILVQSTGMAQWLQMTLSQKFGIAANIDFPLPASFIWDMFVRVLPEIPKESAFNKQSMSWKLMTLLPQLLEREDFTLLRHYLTDDSDKRKLFQLSSKAADLFDQYLVYRPDWLAQWETGHLVEGLGEAQAWQAPLWKALVEYTHQLGQPRWHRANLYQRFIETLESATTCPPGLPSRVFICGISALPPVYLQALQALGKHIEIHLLFTNPCRYYWGDIKDPAYLAKLLTRQRRHSFEDRELPLFRDSENAGQLFNSDGEQDVGNPLLASWGKLGRDYIYLLSDLESSQELDAFVDVTPDNLLHNIQSDILELENRAVAGVNIEEFSRSDNKRPLDPLDSSITFHVCHSPQREVEVLHDRLLAMLEEDPTLTPRDIIVMVADIDSYSPFIQAVFGSAPADRYLPYAISDRRARQSHPVLEAFISLLSLPDSRFVSEDVLALLDVPVLAARFDITEEGLRYLRQWVNESGIRWGIDDDNVRELELPATGQHTWRFGLTRMLLGYAMESAQGEWQSVLPYDESSGLIAELVGHLASLLMQLNIWRRGLAQERPLEEWLPVCRDMLNAFFLPDAETEAAMTLIEQQWQAIIAEGLGAQYGDAVPLSLLRDELAQRLDQERISQRFLAGPVNICTLMPMRSIPFKVVCLLGMNDGVYPRQLAPLGFDLMSQKPKRGDRSRRDDDRYLFLEALISAQQKLYISYIGRSIQDNSERFPSVLVQELIDYIGQSHYLPGDEALNCDESEARVKAHLTCLHTRMPFDPQNYQPGERQSYAREWLPAASQAGKAHSEFVQPLPFTLPETVPLETLQRFWAHPVRAFFQMRLQVNFRTEDSEIPDTEPFILEGLSRYQINQQLLNALVEQDDAERLFRRFRAAGDLPYGAFGEIFWETQCQEMQQLADRVIACRQPGQSMEIDLACNGVQITGWLPQVQPDGLLRWRPSLLSVAQGMQLWLEHLVYCASGGNGESRLFLRKDGEWRFPPLAAEQALHYLSQLIEGYREGMSAPLLVLPESGGAWLKTCYDAQNDAMLDDDSTLQKARTKFLQAYEGNMMVRGEGDDIWYQRLWRQLTPETMEAIVEQSQRFLLPLFRFNQS | 5.23 ± 0.17 h | 4.28 ± 0.21 h | 3.58 ± 0.068 h | 4.13 ± 0.12 h | 3.63 ± 0.41 h | 3.44 ± 0.61 h | 5.57 ± 0.32 h | 13 ± 2.4 h | 4.32 ± 0.95 h | 6.21 ± 0.64 h | 6.1 ± 0.47 h | 11.3 ± 0.4 h
MMPQSLPDTTTPKRRFRWPTGMPQLVALLLVLLVDSLVAPHFWQVVLQDGRLFGSPIDILNRAAPVALLAIGMTLVIATGGIDLSVGAVMAIAGATTAAMTVAGFSLPIVLLSALGTGILAGLWNGILVAILKIQPFVATLILMVAGRGVAQLITAGQIVTFNSPDLSWFGSGSLLFLPTPVIIAVLTLILFWLLTRKTALGMFIEAVGINIRAAKNAGVNTRIIVMLTYVLSGLCAAIAGIIVAADIRGADANNAGLWLELDAILAVVIGGGSLMGGRFNLLLSVVGALIIQGMNTGILLSGFPPEMNQVVKAVVVLCVLIVQSQRFISLIKGVRSRDKT | – | – | – | – | – | – | – | 8.92 h | – | – | – | –
MSKQLTAQAPVDPIVLGKMGSSYGIRGWLRVFSSTEDAESIFDYQPWFIQKAGQWQQVQLESWKHHNQDMIIKLKGVDDRDAANLLTNCEIVVDSSQLPQLEEGDYYWKDLMGCQVVTTEGYDLGKVVDMMETGSNDVLVIKANLKDAFGIKERLVPFLDGQVIKKVDLTTRSIEVDWDPGF [P0A7X6] | 5.56 ± 0.28 h | 3.21 h | 3.38 h | 4.04 ± 1.9 h | 3.79 h | 2.65 ± 0.43 h | 4.72 ± 0.19 h | 7.94 ± 0.8 h | – | 5.22 h | – | 3.98 ± 0.42 h
P0AAI3 | 4.9 ± 0.24 h | 5.097 ± 0.043 h | 4.76 ± 0.23 h | 4.88 ± 0.19 h | 4.46 ± 0.14 h | 3.11 ± 0.11 h | 5.51 ± 0.52 h | 10.8 ± 0.55 h | 4.53 ± 0.27 h | 8.44 ± 0.27 h | 6.15 ± 0.37 h | 10.2 ± 0.18 h
MSAFTPASEVLLRHSDDFEQSRILFAGDLQDDLPARLDTAASRAHTQQFHHWQVLSRQMGDNARFSLVATADDVADCDTLIYYWPKNKPEAQFQLMNLLSLLPVGTDIFVVGENRSGVRSAEQMLADYAPLNKVDSARRCGLYFGRLEKQPVFDAEKFWGEYSVDGLTVKTLPGVFSRDGLDVGSQLLLSTLTPHTKGKVLDVGCGAGVLSVAFARHSPKIRLTLCDVSAPAVEASRATLAANGVEGEVFASNVFSEVKGRFDMIISNPPFHDGMQTSLDAAQTLIRGAVRHLNSGGELRIVANAFLPYPDVLDETFGFHEVIAQTGRFKVYRAIMTRQAKKG | 6.65 ± 1.3 h | 5.678 ± 0.047 h | 6.2 ± 0.67 h | 6.21 ± 0.59 h | 5.56 ± 0.52 h | 2.93 ± 0.21 h | 6.41 ± 0.39 h | 11.6 ± 0.39 h | 5.68 ± 0.71 h | 11.1 ± 1.8 h | 6 ± 0.36 h | 12.9 ± 0.31 h
MTQVAKKILVTCALPYANGSIHLGHMLEHIQADVWVRYQRMRGHEVNFICADDAHGTPIMLKAQQLGITPEQMIGEMSQEHQTDFAGFNISYDNYHSTHSEENRQLSELIYSRLKENGFIKNRTISQLYDPEKGMFLPDRFVKGTCPKCKSPDQYGDNCEVCGATYSPTELIEPKSVVSGATPVMRDSEHFFFDLPSFSEMLQAWTRSGALQEQVANKMQEWFESGLQQWDISRDAPYFGFEIPNAPGKYFYVWLDAPIGYMGSFKNLCDKRGDSVSFDEYWKKDSTAELYHFIGKDIVYFHSLFWPAMLEGSNFRKPSNLFVHGYVTVNGAKMSKSRGTFIKASTWLNHFDADSLRYYYTAKLSSRIDDIDLNLEDFVQRVNADIVNKVVNLASRNAGFINKRFDGVLASELADPQLYKTFTDAAEVIGEAWESREFGKAVREIMALADLANRYVDEQAPWVVAKQEGRDADLQAICSMGINLFRVLMTYLKPVLPKLTERAEAFLNTELTWDGIQQPLLGHKVNPFKALYNRIDMRQVEALVEASKEEVKAAAAPVTGPLADDPIQETITFDDFAKVDLRVALIENAEFVEGSDKLLRLTLDLGGEKRNVFSGIRSAYPDPQALIGRHTIMVANLAPRKMRFGISEGMVMAAGPGGKDIFLLSPDAGAKPGHQVK | 4.5 ± 0.63 h | 4.18 ± 0.33 h | 4.16 ± 0.055 h | 4.3651 ± 0.0038 h | 4.17 ± 0.25 h | 3.09 ± 0.24 h | 5.54 ± 0.16 h | 9.62 ± 0.28 h | 4.1 ± 0.34 h | 6.3 ± 0.071 h | 5.51 ± 0.33 h | 11.4 ± 0.34 h
